This note sets out measurements from article PMC10397247.

Assay [1] concerns the target T1, 4H3782-AA.
T1 chain: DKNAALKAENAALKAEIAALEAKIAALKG
The experiment in a line: two-hybrid library CCmax.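 Further: natural log of median RNA to DNA barcode read ratio; higher means stronger binding.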 Particulars: mean of both orientations.

Assay [2] concerns the target T2, 4H_BCR.
T2 chain: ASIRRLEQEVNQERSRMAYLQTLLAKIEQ
The experiment in a line: two-hybrid library CCmax.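 Further: natural log of median RNA to DNA barcode read ratio; higher means stronger binding.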 The settings on record: mean of both orientations.

For assay [3], the target named is T3, 4H58-AA.
T3 chain: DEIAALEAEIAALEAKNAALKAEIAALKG
Briefly: two-hybrid library CCmax.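 Further: natural log of median RNA to DNA barcode read ratio; higher means stronger binding.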 Particulars: mean of both orientations.

For assay [4], the target named is T4, 4H3705-AA.
T4 chain: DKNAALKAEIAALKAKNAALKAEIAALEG
The experiment in a line: two-hybrid library CCmax.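 Further: natural log of median RNA to DNA barcode read ratio; higher means stronger binding.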 Particulars: mean of both orientations.

The target in assay [5] is T5, 4H486-AA.
T5 chain: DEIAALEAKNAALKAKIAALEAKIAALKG
Briefly: two-hybrid library CCmax. Particulars: mean of both orientations.

Assay [6] has as its target GCN2_T. The experiment in a line: two-hybrid library CCmax.
The target in assay [7] is T6, 4H895-AA.
T6 chain: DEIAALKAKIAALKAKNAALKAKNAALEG
The experiment in a line: two-hybrid library CCmax. The settings on record: mean of both orientations.

The target of assay [8] is 4H_GCN4. Briefly: two-hybrid library CCmax. Particulars: mean of both orientations.
For assay [9], the target named is T7, 4H535-AA.
T7 chain: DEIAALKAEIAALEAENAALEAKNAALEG
Briefly: two-hybrid library CCmax. The settings on record: mean of both orientations.

The target of assay [10] is T8, 4H_APH.
T8 chain: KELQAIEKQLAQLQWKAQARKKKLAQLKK
Briefly: two-hybrid library CCmax. The settings on record: mean of both orientations.

The target of assay [11] is T9, 4H465-AA.
T9 chain: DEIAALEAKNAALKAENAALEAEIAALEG
Briefly: two-hybrid library CCmax. Particulars: mean of both orientations.

Assay [12] addresses T10, 4H3651-AA.
T10 chain: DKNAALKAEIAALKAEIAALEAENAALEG
Briefly: two-hybrid library CCmax.

Assay [13] addresses T11, O8.
T11 chain: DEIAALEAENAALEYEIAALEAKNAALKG
Briefly: two-hybrid library CCNG1.

The target in assay [14] is T12, O6.
T12 chain: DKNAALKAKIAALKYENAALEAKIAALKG
The experiment in a line: two-hybrid library CCNG1.

Assay [15] deals with T13, O9.
T13 chain: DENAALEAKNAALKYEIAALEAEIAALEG
The experiment in a line: two-hybrid library CCNG1.

The target in assay [16] is T14, O7.
T14 chain: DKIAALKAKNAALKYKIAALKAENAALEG
Briefly: two-hybrid library CCNG1.

The target in assay [17] is T15, O5.
T15 chain: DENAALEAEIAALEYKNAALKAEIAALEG
The experiment in a line: two-hybrid library CCNG1.

Chain of 4H_GCN4 (chain, as listed by the source): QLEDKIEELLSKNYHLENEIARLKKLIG

B1: 4H3651-AA (peptide)
chain: DKNAALKAEIAALKAEIAALEAENAALEG
Turning to B1, the interaction score is -0.2 in assay [1]; -1.92 in [2]; -0.388 in [3]; -1.53 in [4]; -0.82 in assay [5]; -1.92 in assay [6]. In addition, the interaction score is 2.08 in assay [7]; -1.81 in assay [8]; -1.16 in assay [9]; -1.76 in assay [10]; -1.28 in [11]; -0.561 in [12].

B2: O5 (peptide)
chain: DENAALEAEIAALEYKNAALKAEIAALEG
For B2, the interaction score in assay [13] was -2.4; in assay [14], 1.32; in assay [15], -2.25; in assay [16], -2.16; in [17], -2.36.
